According to publication PMC5836133, “The intracellular immune receptor Rx1 regulates the DNA-binding activity of a Golden2-like transcription factor”:
Several values for one entry are separate records, joined by “and”; a condition that tells them apart may be missing. Equal values may be shown once.

T1: NbGlk1(83-243) (Nicotiana benthamiana, UniProt A0A1S4ALG4 83-252)
T1 sequence: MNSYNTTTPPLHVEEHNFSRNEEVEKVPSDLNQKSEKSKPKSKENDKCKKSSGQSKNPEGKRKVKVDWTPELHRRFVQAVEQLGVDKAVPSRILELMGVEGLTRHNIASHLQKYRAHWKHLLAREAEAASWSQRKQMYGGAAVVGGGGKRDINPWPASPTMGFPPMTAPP

T2: NbGlk1(83-402) (Nicotiana benthamiana, UniProt A0A1S4ALG4 83-410)
T2 sequence: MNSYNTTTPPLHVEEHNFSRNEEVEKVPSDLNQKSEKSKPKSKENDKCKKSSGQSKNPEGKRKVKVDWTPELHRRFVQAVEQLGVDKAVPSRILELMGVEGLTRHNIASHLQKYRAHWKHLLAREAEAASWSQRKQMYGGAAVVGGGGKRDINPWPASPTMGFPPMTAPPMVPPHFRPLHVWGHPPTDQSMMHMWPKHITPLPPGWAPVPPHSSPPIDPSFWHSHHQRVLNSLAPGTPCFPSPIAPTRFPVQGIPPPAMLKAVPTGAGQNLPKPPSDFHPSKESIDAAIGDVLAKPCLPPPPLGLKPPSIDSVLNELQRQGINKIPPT

T3: NbGlk1(83-243) (Nicotiana benthamiana)
T3 chain: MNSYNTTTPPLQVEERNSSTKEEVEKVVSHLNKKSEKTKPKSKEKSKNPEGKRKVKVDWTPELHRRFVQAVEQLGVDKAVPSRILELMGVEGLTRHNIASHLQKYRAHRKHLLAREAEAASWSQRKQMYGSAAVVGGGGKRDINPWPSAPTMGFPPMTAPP

T4: NbGlk1(83-402) (Nicotiana benthamiana)
T4 chain: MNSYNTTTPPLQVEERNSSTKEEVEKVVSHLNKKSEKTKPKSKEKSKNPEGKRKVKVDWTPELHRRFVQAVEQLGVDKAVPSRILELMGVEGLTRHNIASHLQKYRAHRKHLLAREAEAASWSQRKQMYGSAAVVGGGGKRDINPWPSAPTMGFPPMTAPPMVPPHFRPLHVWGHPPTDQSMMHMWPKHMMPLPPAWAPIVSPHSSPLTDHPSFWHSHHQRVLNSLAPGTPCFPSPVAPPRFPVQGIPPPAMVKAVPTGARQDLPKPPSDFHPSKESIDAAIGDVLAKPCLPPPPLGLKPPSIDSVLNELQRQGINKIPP

B1: No site (FA-1/FA-2) (dsDNA)
DNA 1: CACTGTGACACACTGTGACACACTGTGACACACTGTGACACACTGTGACC
DNA 2: GGTCACAGTGTGTCACAGTGTGTCACAGTGTGTCACAGTGTGTCACAGTG
B2: GATATC (concatenated GGATATCC; FA-5/FA-6) (dsDNA)
DNA 1: CGGATATCCACGGATATCCACGGATATCCACGGATATCCACGGATATCCC
DNA 2: GGGATATCCGTGGATATCCGTGGATATCCGTGGATATCCGTGGATATCCG
B3: AGATTT (concatenated AGATTTCC; FA-3/FA-4) (dsDNA)
DNA 1: CAGATTTCCACAGATTTCCACAGATTTCCACAGATTTCCACAGATTTCCC
DNA 2: GGGAAATCTGTGGAAATCTGTGGAAATCTGTGGAAATCTGTGGAAATCTG

Columns and labels:
[1] = biological target: T1, NbGlk1(83-243); experiment: fluorescence anisotropy; no Rx1; 20 mM Tris-HCl pH 7.4, 140 mM NaCl, 1 mM DTT; 10 nM fluorescein-labelled dsDNA; temperature not stated; Kd unit uM inferred from text (Kd >1 uM); conditions: protein: recombinant; tags: His6 (pET14b); label: 6-carboxyfluorescein end label on FA-1; annealed complementary oligonucleotides
[2] = biological target: T2, NbGlk1(83-402); experiment: as above; conditions: protein: recombinant; tags: His6 (pET14b); label: 6-carboxyfluorescein end label on FA-1; annealed complementary oligonucleotides
[3] = biological target: T3, NbGlk1(83-243); experiment: fluorescence anisotropy; Fluorescence anisotropy: 20 mM Tris-HCl pH 7.4, 140 mM NaCl, 1 mM DTT, 10 nM labelled DNA; temperature not stated. PBM conditions as in cited protocols.; conditions: protein: recombinant, tags: His6 (pET14b), annealed complementary oligonucleotides
[4] = biological target: T4, NbGlk1(83-402); experiment: as above; conditions: protein: recombinant, tags: His6 (pET14b), annealed complementary oligonucleotides
[5] = biological target: T2, NbGlk1(83-402); experiment: fluorescence anisotropy; no Rx1 (Table 2 series); 20 mM Tris-HCl pH 7.4, 140 mM NaCl, 1 mM DTT; 10 nM fluorescein-labelled dsDNA; temperature not stated; Kd unit uM inferred from text (Kd >1 uM); conditions: protein: recombinant; tags: His6 (pET14b); label: 6-carboxyfluorescein end label on FA-1; annealed complementary oligonucleotides
[6] = biological target: T1, NbGlk1(83-243); experiment: fluorescence anisotropy; conditions: 20 mM Tris-HCl pH 7.4, 140 mM NaCl, 1 mM DTT, 10 nM fluorescein-labelled dsDNA, temperature not stated, Kd unit uM inferred from text (Kd >1 uM)
[7] = tested on: NbGlk1(1-243) (Nicotiana benthamiana); experiment: fluorescence anisotropy; conditions: 20 mM Tris-HCl pH 7.4, 140 mM NaCl, 1 mM DTT, 10 nM fluorescein-labelled dsDNA, temperature not stated, Kd unit uM inferred from text (Kd >1 uM)
[8] = biological target: T2, NbGlk1(83-402); experiment: fluorescence anisotropy; conditions: 20 mM Tris-HCl pH 7.4, 140 mM NaCl, 1 mM DTT, 10 nM fluorescein-labelled dsDNA, temperature not stated, Kd unit uM inferred from text (Kd >1 uM)
[9] = label: 6-carboxyfluorescein end label on FA-1
[10] = label: 6-carboxyfluorescein end label on FA-5
[11] = label: 6-carboxyfluorescein end label on FA-3

Row | Binder | Kd [1] | Kd [2] | Kd [3, 9] | Kd [4, 9] | Kd [5] | Kd [3, 10] | Kd [4, 10] | Kd ([6]; + Rx1(1-144)) | Kd ([6]; + Rx1(1-489)) | Kd ([6]; no Rx1) | Kd ([7]; + Rx1(1-144)) | Kd ([7]; + Rx1(1-489)) | Kd ([7]; no Rx1, text: only a weak affinity) | Kd ([8]; + Rx1(1-144)) | Kd ([8]; + Rx1(1-489)) | Kd ([8]; + Rx1(GST-1-144)) | Kd ([8]; no Rx1 (Table 2 series)) | Kd ([8]; no Rx1) | Kd [3, 11] | Kd [4, 11]
1 | B1 | 330 ± 20 nM | 180 ± 10 nM | 330 ± 20 nM | 320 nM and 180 nM | 320 ± 30 nM |  |  |  |  |  |  |  |  |  |  |  |  |  |  | 
2 | B2 |  |  |  |  |  | 180 ± 10 nM | 80 nM and 110 nM | 0.4 µM | 0.5 µM | 0.18 µM | > 1 µM | > 1 µM | > 1 µM | 0.3 µM | 0.19 µM | 0.34 µM | 0.11 µM | 0.08 µM |  | 
3 | B3 |  |  |  |  |  |  |  | 0.76 µM | 0.65 µM | 0.23 µM |  |  |  | 0.46 µM | 0.34 µM | 0.73 µM | 0.22 µM | 0.16 µM | 230 ± 10 nM | 160 nM and 220 nM
